Results taken from the domain aggregation screens of Martell et al. (2025).

Experiment: soluble fraction after stress (log2 fold change); higher = more stays soluble; pooled small domains, quantitative proteomics
Settings: stress: 50 degC
Summary of the method: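 The measure of aggregation propensity here is the base-two logarithm of the fold change in the soluble amount of each protein after stress. A higher value means more of that protein stays in solution. Stress was applied at 50°C to pooled libraries of small protein domains, read out by high-throughput quantitative proteomics.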

First: HMIELDRTNLLGVFGPKSRPYALLMLSNGEMIKISIGDQFFGWRVYGIDEKSIQVQNGTKQEILRIP
Second: HMELTKAELEVMQILWKLKKAFVGDILDRMVEPKPAYNTVSTVVRLLEKKGVVGHESFGKSHRYYPL
The “soluble fraction (log2)” value of the first is higher: -2.12 for the first, -3.22 for the second.

“HMDDENKIEVMINEEKVQLTGKDKYVFVDIFNYIDMDLTRIHGNLVLKLNGENASHNSLLKSGDKIEARWE” and “HMGMGDALRILFNQAMLIEREQYLQAGAYERNENPVNYANGFKAKTLNTRVGALEVAVPQTRDSAFYPSFL” are within 0.2 log units of each other in “soluble fraction (log2)” value: -0.181 for the first, -0.114 for the second.

Compared with “HMDTETLIDKYQLNASEAAVLRFMDKNRDSLRDLGIRDVARASYVSTATIVNMAKKIGYSGYSELVFAYGS”, “HMPVGSIGERLKALRLKAGLTQEEVGQHVHISKQTLYKYENGIVTNIPADKIELLATIYSVTPAYIMGWA” is higher in “soluble fraction (log2)” value: -1.09 for the first, -0.875 for the second.

Compared with “HMEKLNYSISNEEQGQRIDKYLSLMIEGKSRSFIQGLIDDKKVMANGKVIKSNYKLKNNDEITVEMPDPI”, “HMFDENVKLIENEYDVSIISRGSELKVMGDVENVDKAARALRSMLAMINKGESLTEQNVRYVLTLVNEGNE” is lower in “soluble fraction (log2)” value: -0.155 for the first, -0.527 for the second.

Compared with “HMFSPSDEDLELAHRQIRAFEEVEANGKSIAVVDGRIVESLHIVTARDTLEKAKAITALAEEM”, “HMAAIPEQVSEEVVSAVKASGIDPGKVTKEQWTSLLKGRRTALGSSSGKLFMLSKAPVGYTLKAVNA” is higher in “soluble fraction (log2)” value: 0.115 for the first, 0.333 for the second.

Going from “HMQTTVHLSPEEMVIMNALKQESPIDLPILRAQVEMSNKLWDTSMKNLSKLGQLKVEKIGEQVSVSLI” to “HMSQVHYAVLFKNASAAEATEIVTYARETLGVQDIKINANGDILVPEDKVEEMRVSMSIAGFPK”, the “soluble fraction (log2)” value rises from -0.257 to 0.22.

“HMQERTVVKGVVVQVSRDEAYVDIGYKQEIPVSKRDLAVPAPDDARDVVKVGDEIDVYIKSLGGDNGG” and “HMSAEGPALADWVVRDAHSIGAKITNSVAQLLIDRVGHNQQLLHNELQKLALVQTDISAELVKTMSHY” are within 0.2 log units of each other in “soluble fraction (log2)” value: -0.00098 for the first, 0.0302 for the second.

“HMAQDIEQLEKAVSFYTRMDPAAAALSITNLDQKTAVNILMRMKDKQASAVLESMTAERSSELIDSIARK” and “HMQSTVSTHQKTLALDTAQSGIPVFPVSSTHKRPLTDHGYKDATADADAVRKIWQQFPSAFV” are within 0.2 log units of each other in “soluble fraction (log2)” value: 0.00388 for the first, 0.0922 for the second.

“HMTGGLTQEQISQLRMLTPQQIEQLRQLQPQQVEMLRQLRPEQVMLLTQLEPQQIMAFMRLEPSVIMQL” and “HMSEMLPFDEARRQFERDYLVQLLKLTSGNVSQAARLARRNRTDFYALLGRHQLEPASFKPE” are within 0.2 log units of each other in “soluble fraction (log2)” value: -0.215 for the first, -0.298 for the second.

Compared with “HMLPIMDRLITAGISINTAKKWVDKFGDKRIKQNLAYSLAKQKEGKVKTNFVGYLAKAIEEDWGSGWE”, “HMENEIVMPVQINGKKRGDLTIARDADQASIQKAVLELDFVKAALNGGSPKKVIVVPQRIVNVV” is higher in “soluble fraction (log2)” value: -0.557 for the first, 0.325 for the second.

Compared with “HMARAPIYPDGLTQREVEVLSLVAAGKTDREIAEELFIALRTVTTHVGNILNKIGAANRTEAAGYATRQGL”, “HMSVTSEIGAKIKYFRKSKHFSLQEMADLLYKSKSTLSKYENGQISIDIETLYAIAKVLGVHVEQLLYSEP” is lower in “soluble fraction (log2)” value: -0.459 for the first, -4.49 for the second.

Compared with “HMDKPIVFLEDTKAHKSSDLQSPVYMTVPKGTIAFVIAEKGDWSQVYAGRVLDRNLASQWVRRGFS”, “HMNTPNYDVLYRGLADADAGQIMEALQKSNIPFKVDSHSGVLLVPADQVHEARLKLASQGLPRG” is lower in “soluble fraction (log2)” value: 0.227 for the first, 0.0262 for the second.

Going from “HMGFSDDEHNALADADLKKALEVTTNKSETQYNIAKLIYSYIISLGDKKPYGDWSYDKALSIIHDA” to “HMAIDLSLIPGNLLRELHGAVEDGDMYRIRELIRSISAVDEKVGKELLLLAERYDYERLLELVND”, the “soluble fraction (log2)” value falls from 0.0519 to -0.384.

Compared with “HMGAQINSPISGTILKYLVKNGDKITKDQPLVNIESMKMENTIKSDKEGIVNNINFKIGDSVNTADTLLTL”, “HMKEFEINSQWKPSLEVYDILSVKGGISRNFIEDSIPEFVLYWRGRGDKSNTWDSKFVQHVKRQWNFYSGL” is lower in “soluble fraction (log2)” value: 0.0243 for the first, -3.32 for the second.

Compared with “HMVGEQISYIPLKFATASEVVKSLTSMFQQQKGIAPIRIVAEERTNAILLLASEADTARVKNLIAMMDKGV”, “HMAAIPATVDEETYRRLKPMLKQYGILYHEFKPLRSGKKGAVELIFMEKDLALVQELLSRLKKEK” is higher in “soluble fraction (log2)” value: -0.0246 for the first, 0.422 for the second.
